In article PMC11055677 (Cell, 2024):
Blank lines part the entries; values can stand above or below the binder they belong to.

B2: CINP, full-length wild type, subunit of the reconstituted 55LCC complex (natural protein, human, UniProt Q9BW66 1-212, looked up)
chain: MEAKTLGTVTPRKPVLSVSARKIKDNAADWHNLILKWETLNDAGFTTANNIANLKISLLNKDKIELDSSSPASKENEEKVCLEYNEELEKLCEELQATLDGLTKIQVKMEKLSSTTKGICELENYHYGEESKRPPLFHTWPTTHFYEVSHKLLEMYRKELLLKRTVAKELAHTGDPDLTLSYLSMWLHQPYVESDSRLHLESMLLETGHRAL
B4: SPATA5, full-length wild type, subunit of the reconstituted 55LCC complex (enzyme, human, UniProt Q8NB90 1-893, looked up)
chain: MSSKKNRKRLNQSAENGSSLPSAASSCAEARAPSAGSDFAATSGTLTVTNLLEKVDDKIPKTFQNSLIHLGLNTMKSANICIGRPVLLTSLNGKQEVYTAWPMAGFPGGKVGLSEMAQKNVGVRPGDAIQVQPLVGAVLQAEEMDVALSDKDMEINEEELTGCILRKLDGKIVLPGNFLYCTFYGRPYKLQVLRVKGADGMILGGPQSDSDTDAQRMAFEQSSMETSSLELSLQLSQLDLEDTQIPTSRSTPYKPIDDRITNKASDVLLDVTQSPGDGSGLMLEEVTGLKCNFESAREGNEQLTEEERLLKFSIGAKCNTDTFYFISSTTRVNFTEIDKNSKEQDNQFKVTYDMIGGLSSQLKAIREIIELPLKQPELFKSYGIPAPRGVLLYGPPGTGKTMIARAVANEVGAYVSVINGPEIISKFYGETEAKLRQIFAEATLRHPSIIFIDELDALCPKREGAQNEVEKRVVASLLTLMDGIGSEVSEGQVLVLGATNRPHALDAALRRPGRFDKEIEIGVPNAQDRLDILQKLLRRVPHLLTEAELLQLANSAHGYVGADLKVLCNEAGLCALRRILKKQPNLPDVKVAGLVKITLKDFLQAMNDIRPSAMREIAIDVPNVSWSDIGGLESIKLKLEQAVEWPLKHPESFIRMGIQPPKGVLLYGPPGCSKTMIAKALANESGLNFLAIKGPELMNKYVGESERAVRETFRKARAVAPSIIFFDELDALAVERGSSLGAGNVADRVLAQLLTEMDGIEQLKDVTILAATNRPDRIDKALMRPGRIDRIIYVPLPDAATRREIFKLQFHSMPVSNEVDLDELILQTDAYSGAEIVAVCREAALLALEEDIQANLIMKRHFTQALSTVTPRIPESLRRFYEDYQEKSGLHTL

How the values were obtained:
[1] = biological target: B2; assay: cryo-EM structure; reconstituted 55LCC incubated with 5 mM ATPγS, 0.01% fluorinated octyl maltoside; AlphaFold 2 models rigid-body fitted into the composite map; conditions: both partners purified
[2] = biological target: B4; assay: mass photometry; reconstituted 55LCC, 120 nM final, 25 mM Tris pH 7.5, 400 mM NaCl, with 2 mM ADP or after addition of 5 mM ATPγS (more of the 55LCC peak with ATPγS); conditions: both partners purified
[3] = biological target: T1, C1orf109, untagged, of the purified C1orf109-CINP sub-complex (human, UniProt Q9NX04 1-203); assay: native MS; untagged proteins in 500 mM ammonium acetate; 12 μM C1orf109, 20 μM CINP, 20 μM C1orf109-CINP complex; conditions: both partners purified
T1 sequence (looked up): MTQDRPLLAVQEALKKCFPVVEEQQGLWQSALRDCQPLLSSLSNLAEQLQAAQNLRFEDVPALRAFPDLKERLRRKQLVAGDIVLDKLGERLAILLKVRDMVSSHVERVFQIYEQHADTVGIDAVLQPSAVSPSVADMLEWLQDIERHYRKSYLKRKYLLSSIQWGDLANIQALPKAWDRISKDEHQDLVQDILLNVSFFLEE

[4] = biological target: the molecule itself; assay: cryo-EM structure; reconstituted 55LCC incubated with 5 mM ATPγS, 0.01% fluorinated octyl maltoside; AlphaFold 2 models rigid-body fitted into the composite map

binding result [1]: binds
B1: C1orf109, full-length wild type, subunit of the reconstituted 55LCC complex (natural protein, human, UniProt Q9NX04 1-203, looked up)
chain: MTQDRPLLAVQEALKKCFPVVEEQQGLWQSALRDCQPLLSSLSNLAEQLQAAQNLRFEDVPALRAFPDLKERLRRKQLVAGDIVLDKLGERLAILLKVRDMVSSHVERVFQIYEQHADTVGIDAVLQPSAVSPSVADMLEWLQDIERHYRKSYLKRKYLLSSIQWGDLANIQALPKAWDRISKDEHQDLVQDILLNVSFFLEE

Binder: B2
binding result [2]: binds

stoichiometry N [3]: 1
B3: CINP, untagged, of the purified C1orf109-CINP sub-complex (natural protein, human, UniProt Q9BW66 1-212, looked up)
chain: MEAKTLGTVTPRKPVLSVSARKIKDNAADWHNLILKWETLNDAGFTTANNIANLKISLLNKDKIELDSSSPASKENEEKVCLEYNEELEKLCEELQATLDGLTKIQVKMEKLSSTTKGICELENYHYGEESKRPPLFHTWPTTHFYEVSHKLLEMYRKELLLKRTVAKELAHTGDPDLTLSYLSMWLHQPYVESDSRLHLESMLLETGHRAL

Binder: B4
binding result [4]: binds
